Test results from article PMC4451422, “Catch me if you can: a biotinylated proteoliposome affinity assay for the investigation of assembly of the MexA-MexB-OprM efflux pump from Pseudomonas aeruginosa” (Frontiers in Microbiology, 2015).

B1: OprM (natural protein)
chain: CSLIPDYQRPEAPVAAAYPQGQAYGQNTGAAAVPAADIGWREFFRDPQLQQLIGVALENNRDLRVAALNVEAFRAQYRIQRADLFPRIGVDGSGTRQRLPGDLSTTGSPAISSQYGVTLGTTAWELDLFGRLRSLRDQALEQYLATEQAQRSAQTTLVASVATAYLTLKADQAQLQLTKDTLGTYQKSFDLTQRSYDVGVASALDLRQAQTAVEGARATLAQYTRLVAQDQNALVLLLGSGIPANLPQGLGLDQTLLTEVPAGLPSDLLQRRPDILEAEHQLMAANASIGAARAAFFPSISLTANAGTMSRQLSGLFDAGSGSWLFQPSINLPIFTAGSLRASLDYAKIQKDINVAQYEKAIQTAFQEVADGLAARGTFTEQLQAQRDLVKASDEYYQLADKRYRTGVDNYLTLLDAQRSLFTAQQQLITDRLNQLTSEVNLYKALGGGWNQQTVTQQQTAKKEDPQA
notes: OprM, outer membrane channel of the MexA-MexB-OprM efflux pump, Pseudomonas aeruginosa; Purified by the protocol of Phan et al., 2010 with minor modifications; also called OMF; OprM proteoliposomes
B2: MexAnp, truncated "cysteine-less" form of MexA without its first 24 residues (non-palmitoylated, soluble) (domain or fragment)
chain: GKSEAPPPAQTPEVGIVTLEAQTVTLNTELPGRTNAFRIAEVRPQVNGIILKRLFKEGSDVKAGQQLYQIDPATYEADYQSAQANLASTQEQAQRYKLLVADQAVSKQQYADANAAYLQSKAAVEQARINLRYTKVLSPISGRIGRSAVTEGALVTNGQANAMATVQQLDPIYVDVTQPSTALLRLRRELASGQLERAGDNAAKVSLKLEDGSQYPLEGRLEFSEVSVDEGTGSVTIRAVFPNPNNELLPGMFVHAQLQEGVKQKAILAPQQGVTRDLKGQATALVVNAQNKVELRVIKADRVIGDKWLVTEGLNAGDKIITEGLQFVQPGVEVKTVPAKNVASAQKADAAPAKTDSKG
notes: MexA, Pseudomonas aeruginosa, without its first 24 residues; non-palmitoylated, soluble; no point mutation is printed; also called soluble version of MexA; soluble MexA; source: generated in the laboratory, produced and purified

What was measured:
Experiment in all cases: pull-down; MagStrep (streptavidin) magnetic beads sediment biotin-lipid proteoliposomes with MexB or MexAB; OprM in separate proteoliposomes; non-energized: 25 mM Hepes pH7, 100 mM K2SO4, 2 mM MgSO4; 20 min at room temperature; pellets on SDS-PAGE, Coomassie
Conditions in all cases: both partners purified
[1] = target: T1, MexAB: MexA (palmitoylated) and MexB reconstituted together in biotinylated proteoliposomes (Pseudomonas aeruginosa, UniProt P52477 24-383; P52002 1-1046, palmitoylated (lipid anchor); residue not stated)
T1 construct: MexA, Pseudomonas aeruginosa, palmitoylated version; as m1; MexB, Pseudomonas aeruginosa; as m3; also called MexAB proteoliposomes; MexA and MexB; source: each protein from C43 ΔAcrB strain, purified; reconstituted together in proteoliposomes with biotinylated lipids
T1 sequence 1: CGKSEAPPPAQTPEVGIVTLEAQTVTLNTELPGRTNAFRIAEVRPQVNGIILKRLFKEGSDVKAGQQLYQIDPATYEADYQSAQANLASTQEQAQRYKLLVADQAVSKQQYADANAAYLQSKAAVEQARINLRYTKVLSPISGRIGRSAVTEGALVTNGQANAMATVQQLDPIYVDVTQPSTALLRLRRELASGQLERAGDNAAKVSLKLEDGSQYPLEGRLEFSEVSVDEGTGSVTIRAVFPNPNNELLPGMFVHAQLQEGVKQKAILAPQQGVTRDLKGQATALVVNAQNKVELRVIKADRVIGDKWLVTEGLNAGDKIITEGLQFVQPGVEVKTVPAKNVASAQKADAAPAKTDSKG
T1 sequence 2: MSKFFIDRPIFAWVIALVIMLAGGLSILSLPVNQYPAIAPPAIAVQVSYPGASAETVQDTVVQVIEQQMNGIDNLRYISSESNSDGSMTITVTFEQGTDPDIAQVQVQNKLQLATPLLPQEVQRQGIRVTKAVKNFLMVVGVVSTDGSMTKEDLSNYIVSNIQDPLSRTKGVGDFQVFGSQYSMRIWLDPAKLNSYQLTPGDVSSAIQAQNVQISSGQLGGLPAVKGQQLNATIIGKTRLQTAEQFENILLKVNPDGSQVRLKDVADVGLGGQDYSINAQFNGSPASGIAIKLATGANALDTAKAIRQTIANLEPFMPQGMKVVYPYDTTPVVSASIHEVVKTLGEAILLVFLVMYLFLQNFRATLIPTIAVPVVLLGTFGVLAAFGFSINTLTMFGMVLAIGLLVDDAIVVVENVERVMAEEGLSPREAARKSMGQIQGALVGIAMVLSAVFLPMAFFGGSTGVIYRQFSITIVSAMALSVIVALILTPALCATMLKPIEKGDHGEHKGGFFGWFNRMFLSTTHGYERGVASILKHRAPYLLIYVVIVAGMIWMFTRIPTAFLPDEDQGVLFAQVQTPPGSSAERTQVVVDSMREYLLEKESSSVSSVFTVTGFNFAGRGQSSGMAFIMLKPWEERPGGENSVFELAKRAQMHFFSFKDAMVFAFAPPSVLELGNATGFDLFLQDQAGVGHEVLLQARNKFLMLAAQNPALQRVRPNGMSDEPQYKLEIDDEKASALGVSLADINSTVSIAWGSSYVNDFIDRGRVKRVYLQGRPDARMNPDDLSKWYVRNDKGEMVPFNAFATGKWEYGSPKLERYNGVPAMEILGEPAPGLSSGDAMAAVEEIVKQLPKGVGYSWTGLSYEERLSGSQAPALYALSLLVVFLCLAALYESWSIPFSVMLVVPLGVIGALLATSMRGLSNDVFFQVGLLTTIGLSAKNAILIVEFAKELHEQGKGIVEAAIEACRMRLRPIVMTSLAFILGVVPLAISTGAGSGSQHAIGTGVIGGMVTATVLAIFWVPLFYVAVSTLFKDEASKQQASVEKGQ

[2] = target: T2, MexAB_(D407N): MexA (palmitoylated) and the inactive MexB D407N mutant reconstituted together in biotinylated … (Pseudomonas aeruginosa, UniProt P52477 24-383; P52002 1-1046, D407N, palmitoylated (lipid anchor); residue not stated)
T2 construct: MexA, Pseudomonas aeruginosa, palmitoylated version; as m1; also called MexA and MexB_(D407N); source: reconstituted together in proteoliposomes with biotinylated lipids
T2 sequence (looked up) 1: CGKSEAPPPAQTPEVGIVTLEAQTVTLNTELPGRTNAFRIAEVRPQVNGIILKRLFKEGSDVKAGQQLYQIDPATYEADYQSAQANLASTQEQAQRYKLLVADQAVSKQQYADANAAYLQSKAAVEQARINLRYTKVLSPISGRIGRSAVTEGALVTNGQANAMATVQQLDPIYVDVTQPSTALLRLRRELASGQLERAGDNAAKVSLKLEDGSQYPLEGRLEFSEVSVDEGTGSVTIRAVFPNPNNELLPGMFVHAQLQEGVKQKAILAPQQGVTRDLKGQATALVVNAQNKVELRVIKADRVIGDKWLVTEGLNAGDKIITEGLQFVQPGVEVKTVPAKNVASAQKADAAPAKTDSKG
T2 sequence (looked up) 2: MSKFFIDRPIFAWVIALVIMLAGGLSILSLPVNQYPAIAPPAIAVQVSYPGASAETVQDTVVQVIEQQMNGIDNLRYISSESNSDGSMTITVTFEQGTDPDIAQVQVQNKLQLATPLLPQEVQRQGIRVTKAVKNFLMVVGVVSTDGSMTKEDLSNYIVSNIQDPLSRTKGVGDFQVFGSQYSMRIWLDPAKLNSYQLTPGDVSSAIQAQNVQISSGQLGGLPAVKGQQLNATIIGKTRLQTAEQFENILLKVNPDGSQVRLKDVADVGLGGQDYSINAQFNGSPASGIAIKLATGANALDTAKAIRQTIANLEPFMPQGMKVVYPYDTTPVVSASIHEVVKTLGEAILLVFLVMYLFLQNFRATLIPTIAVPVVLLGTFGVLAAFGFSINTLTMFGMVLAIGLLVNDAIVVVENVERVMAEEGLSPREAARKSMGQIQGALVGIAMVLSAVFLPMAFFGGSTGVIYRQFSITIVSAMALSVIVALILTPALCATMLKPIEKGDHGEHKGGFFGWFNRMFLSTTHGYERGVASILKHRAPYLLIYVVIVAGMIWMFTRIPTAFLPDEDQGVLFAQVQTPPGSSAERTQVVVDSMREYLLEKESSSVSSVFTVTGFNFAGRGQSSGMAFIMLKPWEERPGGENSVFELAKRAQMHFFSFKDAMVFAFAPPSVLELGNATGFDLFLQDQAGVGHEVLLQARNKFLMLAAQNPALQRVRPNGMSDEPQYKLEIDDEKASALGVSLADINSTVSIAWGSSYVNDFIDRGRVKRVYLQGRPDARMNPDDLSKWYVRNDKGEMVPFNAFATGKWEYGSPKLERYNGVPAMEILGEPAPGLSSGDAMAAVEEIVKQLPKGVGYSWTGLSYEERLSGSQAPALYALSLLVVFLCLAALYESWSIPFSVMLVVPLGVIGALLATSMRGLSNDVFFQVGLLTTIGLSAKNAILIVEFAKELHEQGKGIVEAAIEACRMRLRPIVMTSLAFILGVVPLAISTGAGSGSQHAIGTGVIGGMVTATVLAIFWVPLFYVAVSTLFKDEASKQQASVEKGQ

MexB = target: T3, MexB (Pseudomonas aeruginosa, UniProt P52002 1-1046)
T3 construct: MexB, RND inner membrane transporter of the MexA-MexB-OprM efflux pump, Pseudomonas aeruginosa; Purified by the protocol of Mokhonov et al., 2005 with minor modifications; also called MexB alone; RND pump
T3 sequence: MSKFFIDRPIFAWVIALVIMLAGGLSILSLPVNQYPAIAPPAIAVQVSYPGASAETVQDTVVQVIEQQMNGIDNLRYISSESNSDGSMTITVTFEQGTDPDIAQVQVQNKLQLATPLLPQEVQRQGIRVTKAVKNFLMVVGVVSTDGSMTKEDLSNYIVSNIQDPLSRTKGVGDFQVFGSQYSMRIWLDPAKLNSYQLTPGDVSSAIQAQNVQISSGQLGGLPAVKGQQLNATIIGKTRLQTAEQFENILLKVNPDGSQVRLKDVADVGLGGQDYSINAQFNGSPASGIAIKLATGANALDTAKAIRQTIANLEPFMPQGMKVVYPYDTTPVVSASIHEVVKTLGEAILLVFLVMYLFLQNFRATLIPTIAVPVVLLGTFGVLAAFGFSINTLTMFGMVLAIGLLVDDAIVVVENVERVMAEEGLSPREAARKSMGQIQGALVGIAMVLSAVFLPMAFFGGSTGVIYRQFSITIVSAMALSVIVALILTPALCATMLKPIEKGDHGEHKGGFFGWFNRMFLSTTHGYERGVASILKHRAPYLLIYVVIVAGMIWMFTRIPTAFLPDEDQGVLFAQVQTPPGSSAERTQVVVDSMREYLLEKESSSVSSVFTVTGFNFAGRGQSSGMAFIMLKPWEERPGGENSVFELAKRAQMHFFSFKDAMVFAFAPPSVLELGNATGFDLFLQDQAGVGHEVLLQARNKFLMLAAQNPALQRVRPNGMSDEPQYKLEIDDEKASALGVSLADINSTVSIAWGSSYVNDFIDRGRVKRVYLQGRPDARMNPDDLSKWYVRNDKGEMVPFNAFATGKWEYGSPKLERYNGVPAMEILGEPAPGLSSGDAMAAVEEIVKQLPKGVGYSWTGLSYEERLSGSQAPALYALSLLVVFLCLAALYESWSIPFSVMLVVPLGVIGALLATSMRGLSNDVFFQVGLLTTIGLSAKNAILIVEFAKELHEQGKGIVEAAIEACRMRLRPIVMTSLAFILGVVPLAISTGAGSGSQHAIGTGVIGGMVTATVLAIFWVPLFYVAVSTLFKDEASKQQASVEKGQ

Binder | binding result [1] | binding result [2] | binding result (MexB)
B1 | binds | binds | –
B2 | – | – | binds
